Columns and labels:
[1] = target: T1, SARS-CoV-2 spike receptor-binding domain (soluble RBD, residues 319–591) (SARS-CoV-2, UniProt P0DTC2); assay: SPR
[2] = target: T1, SARS-CoV-2 spike receptor-binding …; assay: crystal structure

| Binder | binding result [1] | binding result [2] |
| --- | --- | --- |
| 1H2 IgG (antibody, V domains shown) VH: QVQLQQSGGGLVQPGRSLRLSCAASGFTFDDYAMHWVRQAPGKGLEWVSGITWNSGTIGYADSVKGRFTISRDNAKNSLYLQMRSLRAEDTALYYCAKDSGRKLLWGREDYYMGVWGKGTTVTV VL: SYELTQPPSVSVAPGKTARITCGGSNIGSKSVHWYQQKPGQAPVLVIYYDSDRPSGIPERFSGSNSGNTATLTISRVEAGDEADYYCQVWDSSSDHVVFGG | binds | – |
| 2A10 IgG (antibody, V domains shown) VH: QVQLVESGGGLIQPGGSLRLSCAASEFIVSSNYMSWVRQAPGKGLEWVSLLYSGGTTYYADSVKGRFTISRDNSKNTLFLQMNSLRAEDTAMYYCARDRGPWLHDYWGQGTLVTVSS VL: DIVMTQSPSSLSASVGDRVTITCQASQDINKYCNWYQQKPGKAPKLLIYDASNLETGVPSRFSGSGSGTDFTFTINSLQPEDIATYYCQQYDNLPPTFGGGTKVEIK | binds | – |
| 2A10 Fab (Fab, V domains shown) VH: QVQLVESGGGLIQPGGSLRLSCAASEFIVSSNYMSWVRQAPGKGLEWVSLLYSGGTTYYADSVKGRFTISRDNSKNTLFLQMNSLRAEDTAMYYCARDRGPWLHDYWGQGTLVTVSS VL: DIVMTQSPSSLSASVGDRVTITCQASQDINKYCNWYQQKPGKAPKLLIYDASNLETGVPSRFSGSGSGTDFTFTINSLQPEDIATYYCQQYDNLPPTFGGGTKVEIK | – | binds |

Source: paper PMC10083196 (Cell Reports, 2023)
